Variants at the floor of the assay were thinned out.
Legend:
biotinyl-Phe-oxazolone = assay: self-aminoacylation, catalytic enhancement (BFO) (fold over background); higher = more active; k-Seq, kA / k0A0; sequences stand for … in GGGAAUGGAUCCACAUCUACGAAUUC…UUCACUGCAGACUUGACGAAGCUG
How it was run: (§1)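 Working in 50 μL HEPES/NaCl/KCl/MgCl2/CaCl2 buffer with 5% acetonitrile at pH 6.9–7.0, mutagenized RNA pools (0.43 μM; 21-nt variable region) were reacted with 2–1250 μM of each biotinyl-aminoacyl-oxazolone for 90 minutes at room temperature. Streptavidin capture followed, with quantification by triplicate qPCR and Illumina sequencing. Catalytic enhancement is reported as median kA over the uncatalyzed rate, the low-activity peak of a bimodal Gaussian fit to the data.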

biotinyl-Ile-oxazolone = assay: self-aminoacylation, catalytic enhancement (BIO) (fold over background); higher = more active; k-Seq, kA / k0A0; sequences stand for … in GGGAAUGGAUCCACAUCUACGAAUUC…UUCACUGCAGACUUGACGAAGCUG
How it was run: as §1

biotinyl-Val-oxazolone = assay: self-aminoacylation, catalytic enhancement (BVO) (fold over background); higher = more active; k-Seq, kA / k0A0; sequences stand for … in GGGAAUGGAUCCACAUCUACGAAUUC…UUCACUGCAGACUUGACGAAGCUG
How it was run: as §1

biotinyl-Met-oxazolone = assay: self-aminoacylation, catalytic enhancement (BMO) (fold over background); higher = more active; k-Seq, kA / k0A0; sequences stand for … in GGGAAUGGAUCCACAUCUACGAAUUC…UUCACUGCAGACUUGACGAAGCUG
How it was run: as §1

biotinyl-Leu-oxazolone = assay: self-aminoacylation, catalytic enhancement (BLO) (fold over background); higher = more active; k-Seq, kA / k0A0; sequences stand for … in GGGAAUGGAUCCACAUCUACGAAUUC…UUCACUGCAGACUUGACGAAGCUG
How it was run: as §1

biotinyl-Trp-oxazolone = assay: self-aminoacylation, catalytic enhancement (BWO) (fold over background); higher = more active; k-Seq, kA / k0A0; sequences stand for … in GGGAAUGGAUCCACAUCUACGAAUUC…UUCACUGCAGACUUGACGAAGCUG
How it was run: as §1

Row | Sequence | self-aminoacylation (biotinyl-Phe-oxazolone) | self-aminoacylation (biotinyl-Ile-oxazolone) | self-aminoacylation (biotinyl-Val-oxazolone) | self-aminoacylation (biotinyl-Met-oxazolone) | self-aminoacylation (biotinyl-Leu-oxazolone) | self-aminoacylation (biotinyl-Trp-oxazolone)
1 | AAGCUCGCUAAUAGUCGCAAG [Fam3.1 aminoacylation ribozyme variant] | 3.66 | 2.09 | 1.95 | 1.75 | 2.49 | 2.2
2 | AUUAUCCUGGUCAUCGAGUGA [Fam2.1 aminoacylation ribozyme variant] | 20.7 | 6.23 | 6.5 | 13 | 13.5 | 14.5
3 | CUACUUCAUACAAUCGGUCCG [Fam1A.1 aminoacylation ribozyme variant] | 0.5 | 0.675 | 0.653 | 0.76 | 0.669 | 0.49
4 | CUACUUGAAACAAUCGGUCCG [Fam1A.1 aminoacylation ribozyme variant] | 0.497 | 0.929 | 1.02 | 1.31 | 0.748 | 1.48
5 | UUUACCCUGGUCAUUGAGUGA [Fam2.1 aminoacylation ribozyme variant] | 38.1 | 3.76 | 3.91 | 7.86 | 7.06 | 10.1
6 | GCACACUUCAAGCAAUCGGUU [Fam1B.1 aminoacylation ribozyme variant] | 4.75 | 3.38 | 2.86 | 2.66 | 3.33 | 6.83
7 | ACUUACCUAGGUCAUCGGGUG [Fam2.2 aminoacylation ribozyme variant] | 48.7 | 7.28 | 5.61 | 10.6 | 10.8 | 10.1
8 | CGACUUAAAACAAUCGGUCUG [Fam1A.1 aminoacylation ribozyme variant] | 1.15 | 1.33 | 1.17 | 1.48 | 1.26 | 1.06
9 | AUUAACCUGGUCAUCGAGUGU [Fam2.1 aminoacylation ribozyme variant] | 5.48 | 2.33 | 2.61 | 3.72 | 4.39 | 4.67
10 | AAGUUUGCUAAUACCCGCAAG [Fam3.1 aminoacylation ribozyme variant] | 0.631 | 0.909 | 0.838 | 0.577 | 0.783 | 1.45
11 | AACUUUGCUAAGAGUCGCAAG [Fam3.1 aminoacylation ribozyme variant] | 12.8 | 2.78 | 2.62 | 3.93 | 4.13 | 5.02
12 | CUAAUUCAUACAAUCGGUCUG [Fam1A.1 aminoacylation ribozyme variant] | 0.621 | 0.767 | 0.77 | 0.637 | 0.594 | 0.52
13 | CCACGCUCCAAGCAAUCGGUC [Fam1B.1 aminoacylation ribozyme variant] | 12.6 | 1.13 | 1.47 | 1.07 | 1.11 | 9.91
14 | CCACACUUCAAGCAAUCUGUC [Fam1B.1 aminoacylation ribozyme variant] | 0.824 | 0.368 | 0.518 | 0.34 | 0.327 | 0.369
15 | AUUCACUUGGGUCAUCGGGUG [Fam2.2 aminoacylation ribozyme variant] | 43.9 | 4.61 | 4.44 | 6.84 | 7.5 | 6.5
16 | UUACACCUAGGUCAUCGGGUG [Fam2.2 aminoacylation ribozyme variant] | 10.5 | 2.25 | 2.15 | 1.92 | 1.87 | 3
17 | CUACUUCAGGCAAUCGGUCUG [Fam1A.1 aminoacylation ribozyme variant] | 1.02 | 0.94 | 1.24 | 0.853 | 1.42 | 1.27
18 | AAGUUUGCUACUUGUCGCAAG [Fam3.1 aminoacylation ribozyme variant] | 1.01 | 1.05 | 1.12 | 0.928 | 1.06 | 1.21
19 | ACUACUCUGGUCAUCGAGUGA [Fam2.1 aminoacylation ribozyme variant] | 36.2 | 4.09 | 3.45 | 5.17 | 8.12 | 7.79
20 | AUUACCCUGGUCAUCGAGGAA [Fam2.1 aminoacylation ribozyme variant] | 8.38 | 2.3 | 2.44 | 5.91 | 5.25 | 4.88
21 | CUACUUAAAACAAUCGGUCUU [Fam1A.1 aminoacylation ribozyme variant] | 0.533 | 0.742 | 0.706 | 0.799 | 0.617 | 0.524
22 | CCACUCCAAACAAUCGGUCUG [Fam1A.1 aminoacylation ribozyme variant] | 4.18 | 1.11 | 1.22 | 1.13 | 1.09 | 3.48
23 | CCACACUUCUAUCAAUCGGUC [Fam1B.1 aminoacylation ribozyme variant] | 0.846 | 0.657 | 0.743 | 0.718 | 0.521 | 0.659
24 | AAUUUUGCUAGUAGUCGCAAG [Fam3.1 aminoacylation ribozyme variant] | 2.34 | 2.02 | 1.36 | 1.77 | 1.56 | 1.71
25 | AUUCAACUAGGUCAUCGGGAG [Fam2.2 aminoacylation ribozyme variant] | 0.48 | 0.943 | 0.961 | 1.23 | 0.899 | 1.05
26 | AUUUACCUACGUCAUCGGGUG [Fam2.2 aminoacylation ribozyme variant] | 32.2 | 2.56 | 3.17 | 4.54 | 6.25 | 4.65
27 | AUUCACAUAGGUCAUCGGGAG [Fam2.2 aminoacylation ribozyme variant] | 0.953 | 1 | 1.19 | 1.13 | 0.985 | 1.76
28 | AUUCACCUAGGACUUCGGGUG [Fam2.2 aminoacylation ribozyme variant] | 19.1 | 2.5 | 2.43 | 2.75 | 3.6 | 3.48
29 | AUUCACGUAGGUCAUCGGGUG [Fam2.2 aminoacylation ribozyme variant] | 53.2 | 4.22 | 5.15 | 6.62 | 7.22 | 6.49
